Reference: publication PMC8802549 (The Journal of Immunology Author Choice, 2022)
Read-outs that look alike come from different tables or passages of the source.

How the values were obtained:
[1] = target: BoLA-1*023:01 MHC class I molecule with bovine β2-microglobulin (bovine) (UniProt P01888); assay: ELISA
[2] = tested on: BoLA-1*023:01 class I molecule; assay: Peptide–MHC class I binding assay (ELISA of p-MHC monomer folding); parameters: species or system bovine; conditions: for Peptide binding to BoLA-1*023:01 (folding in ELISA), in words: Fig. 1B, 10-mer and peptides with 1 or 2 aa deletions at N- or C-terminal end; for Kd: 25 nM BoLA-1*023:01, 150 nM bovine β2m, peptide 0–40 μM, 48 h 18°C, one-site specific binding fit, representative experiment, duplicates
Protocol: Folding of p-MHC class I complexes was assessed with an ELISA assay as described by Svitek et al. ([34]). The BoLA-1*023:01 molecule (25 nM) and bovine β2m molecule (150 nM) were incubated in a 96-well plate with Tp9_67–75 (Muguga, G1 to A9, or V2 to V9) peptides (Mimotopes, purity: 95%) at various peptide concentrations ranging from 0 to 40 μM. After an incubation of 48 h at 18°C, the complexes were transferred to another 96-well plate precoated with streptavidin (catalog number [cat #] 436014; Nunc), which captures biotinylated heavy chains, and incubated for 3 h at 4°C. After washing, the W6/32 mAb (cat # SC-32235; Santa Cruz Biotechnology, TX), which binds to a monomorphic epitope on β2m, but only when it is incorporated in p-MHC class I complexes, was added for 1 h at 4°C. After washing, anti-mouse IgG coupled to peroxidase (cat # A9917-1ML; Sigma-Aldrich) was added to the plate followed by incubation for an hour at room temperature and further rounds of washes. Colorimetric change was performed by adding the TMB Plus2 “Ready to Use” Substrate (cat # 4395H; Kem En Tec) for 10 min at room temperature. The reaction was stopped by adding H2SO4 (0.3 M), and OD was measured using a Synergy HT ELISA plate reader (BioTek) at 450 nm. Kd values were determined by performing a nonlinear regression curve fit (One-Site Specific Binding) with GraphPad Prism (version 6).
Statistical analyses of data were performed with GraphPad Prism version 6 software. To determine the Kd, binding, and half-life values, we performed a nonlinear regression curve fit (One-Site, Specific binding). R^2 values and confidence intervals were generated to assess curve fit and differences between Kd values. When comparing data generated with the ELISPOT assay with a single peptide concentration, we performed a one-way ANOVA with Dunnett’s correction for multiple comparison. When comparing data generated with the ELISPOT assay with varying peptide concentrations, we performed a two-way ANOVA with Dunnett’s correction for multiple comparison (main column effect). All datasets were compared with the data obtained with the Tp9_67–75 Muguga epitope. All experiments were repeated twice using duplicate measurements.

CTL 495 = assay: IFN-γ ELISPOT with Tp9-specific CTL line 495; format: cell-based, cattle; conditions: for IFN-γ ELISPOT stimulation of CTL 495, in words: Supplemental Fig. 1, minimal epitope peptides, relatively high peptide concentration; for IFN-γ ELISPOT response of CTL 495 vs Tp9_67–75 Muguga, in words: Fig. 3A, alanine/glycine-substituted peptides, 2.5 × 10^4 CD8+ cells/well, 20 h 37°C, reduced = SFU >15% lower than Tp9_67–75
Description: (§1) Autologous T. parva Muguga-infected lymphocyte (TpM) lines from animals BF092, 4003, and 495 and TpM-specific bulk CTLs lines after immunization by ITM were established as previously described ([37]). In brief, PBMCs harvested from immunized animals were stimulated at least three times, at weekly intervals, by coculturing with irradiated autologous T. parva–infected cells (TpMs) at a ratio of 5–10:1 (TpMs:PBMC) in RPMI media containing 15% T cell growth factor ([38]). Cells were maintained in RPMI 1640 culture medium (Sigma-Aldrich) containing 10% heat-inactivated FCS (Life Technologies), 2 mM L-glutamine (Sigma-Aldrich), 1 mg/ml gentamicin (Carl-Roth), 100 UI/ml penicillin (Sigma-Aldrich), 100 mg/ml streptomycin (Sigma-Aldrich), 2-ME (BDH, final concentration: 50 μM ([39]); a detailed description of our protocols can be found in Ref. [40]). The CTL lines from 4003 (A14 homozygous) and 495 (A10/A14 heterozygous) were propagated by stimulating them with cesium-137–irradiated autologous TpM (the use of radioisotope and irradiator was per institutional radiation safety guidelines; the length of exposure for inhibiting replication was empirically determined and found to be optimal with an exposure of 30 min at a distance of 10 cm of the cesium-137 source at 265 rad/min using a top linear irradiator [Conservatome, Lyon, France]), at a ratio of 1:5–10 (CTL:TpMs), and supplementing the media with 2 ng/ml recombinant human IL-2 (Sigma) or 15% T cell growth factor. Cells were incubated at 37°C in a 5% CO2 humidified atmosphere. Both CTLs recognize the Tp9 Ag. CTL clone 8 was derived from the CTL 495 by limiting dilution.
IFN-γ ELISPOT assay was performed as previously described ([34]). In brief, a monoclonal anti-bovine IFN-γ Ab (cat # MCA1783; Serotec, Oxford, U.K.) was incubated overnight at 4°C on ELISPOT plates (cat # MAIPN4550; Millipore, Billerica, MA, USA) and then blocked with RPMI containing 10% heat-inactivated FCS for 2 h at 37°C. Peptides (purity: 95%; Mimotopes) were added at concentrations ranging from 0.1 to 1 μM and CD8^+ cells at 2.5 × 10^4 cells/well. The plates were incubated at 37°C for 20 h. Release of IFN-γ was monitored with primary rabbit polyclonal anti-bovine IFN-γ Ab (Sigma-Aldrich, St. Louis, MO, USA) and secondary alkaline phosphatase–conjugated monoclonal anti-rabbit IgG (cat # A2556; Sigma-Aldrich, St. Louis, MO). Development of plates was done by addition of the substrate solution Sigma Fast (BCIP/NBT, cat # B5655-25TAB; Sigma-Aldrich, St. Louis, MO). Plates were read using an automated ELISPOT reader (AID Classic ELISpot Reader).
Statistical analyses of data were performed with GraphPad Prism version 6 software. To determine the Kd, binding, and half-life values, we performed a nonlinear regression curve fit (One-Site, Specific binding). […]

CTL 4003 = assay: IFN-γ ELISPOT with Tp9-specific CTL line 4003; format: cell-based, cattle; conditions: Fig. 3A; alanine/glycine-substituted peptides; 2.5 × 10^4 CD8+ cells/well, 20 h 37°C; reduced = SFU >15% lower than Tp9_67–75
Description: as §1, with “Cells were maintained in RPMI 1640 culture medium (Sigma-Aldrich) containing 10% heat-inactivated FCS (Life Technologies), 2 mM L-glutamine (Sigma-Aldrich), 1 mg/ml gentamicin (Carl-Roth), 100 UI/ml penicillin (Sigma-Aldrich), 100 mg/ml streptomycin (Sigma-Aldrich), 2-ME (BDH, final concentration: 50 μM ([39]); a detailed description of our protocols can be found in Ref. [40]).” left out, “Cells were incubated at 37°C in a 5% CO2 humidified atmosphere. Both CTLs recognize the Tp9 Ag. CTL clone 8 was derived from the CTL 495 by limiting dilution.” left out
IFN-γ ELISPOT assay was performed as previously described ([34]). […] Release of IFN-γ was monitored with primary rabbit polyclonal anti-bovine IFN-γ Ab (Sigma-Aldrich, St. Louis, MO, USA) and secondary alkaline phosphatase–conjugated monoclonal anti-rabbit IgG (cat # A2556; Sigma-Aldrich, St. Louis, MO). […]

[3] = target: BoLA-1*023:01 MHC class I molecule with bovine β2-microglobulin (bovine) (UniProt P01888); assay: ELISA; remark: listed apart in the source

Tp9A7 peptide (Tp9_(67–75) Muguga with alanine at position 7)
Kd [1]: 10.1 nM

Tp9A9 peptide (Tp9_(67–75) Muguga with alanine at position 9)
Kd [1]: 15 nM

FPGMKKSK [Tp9_69–76, Tp9 peptide with 2 aa deleted at the N-terminal end]
Peptide binding to BoLA-1*023:01 (folding in ELISA), in words [2]: no folding can be measured

KFPGMKKSK [Tp9_68–76, Tp9 peptide with 1 aa deleted at the N-terminal end]
Peptide binding to BoLA-1*023:01 (folding in ELISA), in words [2]: no folding can be measured

AKFPGMKK [Tp9_67–74, 8-mer Tp9 peptide with 2 aa deleted at the C-terminal end]
Peptide binding to BoLA-1*023:01 (folding in ELISA), in words [2]: showed binding
IFN-γ ELISPOT stimulation of CTL 495, in words (CTL 495): capacity to stimulate

Tp9A9: Tp9_67–75 Muguga with alanine substitution at position 9 (AKFPGMKKA)
Kd ([2]; Fig. 2 lower panel, alanine-substituted Tp9_67–75): 15 nM
IFN-γ ELISPOT response of CTL 4003 vs Tp9_67–75 Muguga, in words (CTL 4003): enhanced stimulation
IFN-γ ELISPOT response of CTL 495 vs Tp9_67–75 Muguga, in words (CTL 495): enhanced stimulation

Tp9G1 peptide (Tp9_(67–75) Muguga with glycine at position 1)
Kd [1]: 13.4 nM

Tp9A8 peptide (Tp9_(67–75) Muguga with alanine at position 8)
Kd [1]: 2.58 nM

Tp9A4 peptide (Tp9_(67–75) Muguga with alanine at position 4)
Kd [1]: 28 nM

Tp9A5 peptide (Tp9_(67–75) Muguga with alanine at position 5)
Kd [1]: 23 nM

Tp9A3 peptide (Tp9_(67–75) Muguga with alanine at position 3)
Kd [1]: 86.2 nM

Tp9_(67–75) Muguga epitope peptide
Kd [1]: 13.9 nM
Kd [3]: 29.7 nM

AKFPGMKKSK [Tp9_67–76, 10-mer peptide from the T. parva (Muguga) Tp9 Ag]
Peptide binding to BoLA-1*023:01 (folding in ELISA), in words [2]: showed binding
IFN-γ ELISPOT stimulation of CTL 495, in words (CTL 495): capacity to stimulate

BoLA-1*023:01 control peptide
Kd [1]: 6.94 nM

Tp9A6 peptide (Tp9_(67–75) Muguga with alanine at position 6)
Kd [1]: 16.6 nM

Tp9A2 peptide (Tp9_(67–75) Muguga with alanine at position 2)
Kd [1]: 192 nM

Tp9G1: Tp9_67–75 Muguga with glycine at position 1 (GKFPGMKKS)
Kd ([2]; Fig. 2 upper panel, alanine/glycine-substituted Tp9_67–75): 13.4 nM
IFN-γ ELISPOT response of CTL 4003 vs Tp9_67–75 Muguga, in words (CTL 4003): enhanced stimulation
IFN-γ ELISPOT response of CTL 495 vs Tp9_67–75 Muguga, in words (CTL 495): enhanced stimulation
